Usually IC50 stands for the concentration that gives 50% inhibition. A higher IC50 goes with lower potency.

The record followed here is US20090082262A1 (published 2009).

*: point of attachment. Nonanoyl = CCCCCCCCC(=O)*

B1: HCC-1[11-74] (ligand)
chain: YHPSECCFTYTTYKIPRQRIMDYYETNSQCSKPGIVFITKRGHSVCTNPSDKWVQDYIKDMKEN
B2: HCC-1, residues 6-74 (ligand)
chain: SSRGPYHPSECCFTYTTYKIPRQRIMDYYETNSQCSKPGIVFITKRGHSVCTNPSDKWVQDYIKDMKEN
B3: RANTES (ligand)
chain: SPYSSDTTPCCFAYIARPLPRAHIKEYFYTSGKCSNPAVVFVTRKNRQVCANPEKKWVREYINSLEMS
B4: HCC-1[12-74] (protein)
chain: HPSECCFTYTTYKIPRQRIMDYYETNSQCSKPGIVFITKRGHSVCTNPSDKWVQDYIKDMKEN
B5: NNY-HCC-1[10-74] (ligand)
chain: Nonanoyl-PYHPSECCFTYTTYKIPRQRIMDYYETNSQCSKPGIVFITKRGHSVCTNPSDKWVQDYIKDMKEN
modifications: ends and bridges not checked
B6: HCC-1[10-74] (ligand)
chain: PYHPSECCFTYTTYKIPRQRIMDYYETNSQCSKPGIVFITKRGHSVCTNPSDKWVQDYIKDMKEN
B7: HCC-1[8-74] (ligand)
chain: RGPYHPSECCFTYTTYKIPRQRIMDYYETNSQCSKPGIVFITKRGHSVCTNPSDKWVQDYIKDMKEN
B8: PHC-1 (HCC-1[9-74]) (ligand)
chain: GPYHPSECCFTYTTYKIPRQRIMDYYETNSQCSKPGIVFITKRGHSVCTNPSDKWVQDYIKDMKEN
B9: HCC-1[7-74] (ligand)
chain: SRGPYHPSECCFTYTTYKIPRQRIMDYYETNSQCSKPGIVFITKRGHSVCTNPSDKWVQDYIKDMKEN

This assay deals with T1, chemokine receptor 1 (CCR1) (UniProt P56482 1-355).
T1 chain: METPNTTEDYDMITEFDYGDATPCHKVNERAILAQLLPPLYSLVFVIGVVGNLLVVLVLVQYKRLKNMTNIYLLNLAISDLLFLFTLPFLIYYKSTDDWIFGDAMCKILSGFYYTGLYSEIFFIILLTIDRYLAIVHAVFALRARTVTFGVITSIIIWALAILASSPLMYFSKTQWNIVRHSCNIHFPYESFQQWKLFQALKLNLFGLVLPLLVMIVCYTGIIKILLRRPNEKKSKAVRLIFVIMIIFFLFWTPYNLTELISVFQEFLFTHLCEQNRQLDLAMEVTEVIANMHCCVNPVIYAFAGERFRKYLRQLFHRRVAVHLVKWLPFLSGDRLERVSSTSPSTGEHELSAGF
Kind of assay: competition binding.
In turn, B1 returned an IC50 of 5.07 nM. The value for B2 was 6.52 nM; that for B3 was 0.166 nM; that for B4 was 50.1 nM.

B5: the concentration for half-maximal inhibition (IC50) was 0.0843 nM. Next, B6: 0.182 nM; B7: 2.42 nM; B8: 0.104 nM. Molecule B9 registered a half-inhibitory concentration (IC50) of 4.36 nM.
